# Laboratory results as given in article PMC7728349, “Exploring the Interaction between the SWI/SNF Chromatin Remodeling Complex and the Zinc Finger Factor CTCF” (International Journal of Molecular Sciences, 2020).
# Entries after “also recorded” stand apart in the source; their conditions may differ.
# T1: MBP-fused CTCF zinc finger domains 4–8 (residues 348–494) (human, UniProt P49711 348-494)
# T1 construct: CTCF zinc finger domains 4-8, residues 348-494; also called MBP-CTF-ZF4-8; CTCF domains 4–8; source: E. coli BL21, purified (amylose resin, Superdex 75 gel filtration)
# T1 sequence (looked up): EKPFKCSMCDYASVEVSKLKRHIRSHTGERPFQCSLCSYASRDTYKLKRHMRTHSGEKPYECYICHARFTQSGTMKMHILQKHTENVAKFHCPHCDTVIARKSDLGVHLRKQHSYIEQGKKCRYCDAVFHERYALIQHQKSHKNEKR
# T2: MBP-fused CTCF zinc finger domains 1–11 (residues 263–582) (human, UniProt P49711 263-582)
# T2 construct: CTCF zinc finger domains 1-11, residues 263-582; also called MBP-CTCF-ZF1-11; CTCF domains 1–11; source: E. coli BL21, purified (amylose resin, Superdex 75 gel filtration)
# T2 sequence (looked up): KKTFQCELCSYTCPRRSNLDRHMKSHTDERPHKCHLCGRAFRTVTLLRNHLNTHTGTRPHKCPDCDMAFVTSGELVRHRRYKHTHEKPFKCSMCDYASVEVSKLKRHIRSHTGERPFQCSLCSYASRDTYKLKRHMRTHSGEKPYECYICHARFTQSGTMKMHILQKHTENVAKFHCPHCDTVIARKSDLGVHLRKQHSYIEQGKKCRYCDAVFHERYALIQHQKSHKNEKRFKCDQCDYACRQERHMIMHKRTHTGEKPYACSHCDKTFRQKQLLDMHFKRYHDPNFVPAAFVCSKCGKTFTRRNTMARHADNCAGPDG
# B1: MBP-fused CTFC domain 4–8: recombinant maltose-binding protein (MBP)-fused CTCF zinc finger domains 4–8 (residues 348–494) (protein)
# chain: T1 sequence (looked up)
# modifications: left off: MBP, end not stated, kept
# B2: MBP-fused CTFC domains 1–11: recombinant maltose-binding protein (MBP)-fused CTCF zinc finger domains 1–11 (residues 263–582) (protein)
# chain: T2 sequence (looked up)
# modifications: left off: MBP, end not stated, kept
# B3: BRK domain of BRG1, region 612–656, synthetic polypeptide (peptide)
# chain: Ac-MSDLPVKVIHVESGKILTGTDAPKAGQLEAWLEMNPGYEVAPRSD-NH2
# notes: BRK domain of human BRG1, region 612-656; Coupled to the BLI sensor by EDC/NHS chemistry; also called BRK-BRG1; BRK-BRG1 domain; source: synthetic peptide (solid phase synthesis, purified by RP-HPLC)
# How the values were obtained:
# [1] = target: T3, CTCF zinc finger domains 1–11 (residues 263–582), MBP-fused (Homo sapiens, UniProt P49711); assay: Biolayer interferometry (BLI), immobilised BRK-BRG1 vs MBP-fused CTCF zinc fingers 1–11; format: binding
# T3 construct: CTCF zinc finger domains 1–11 (residues 263–582) and 4–8 (residues 348–494); made in house; host or cells: E. coli BL21
# Method: (§1) 4.8. Recombinant CTCF Zinc Finger Domains 1–11 and 4–8 Expression and Purification
# (§2) The plasmids CTCF-ZF1-11-pMalC2G and CTF-ZF4-8-pMalC2G, obtained as previously reported, were used to transform E. coli BL21 host strain. Transformed colonies were inoculated in LB 0.2% glucose medium and grown a 37 °C, until the culture reached the optical density of 0.6 nm at 600 nm (OD600). At this point of growth, 200 µM ZnSO4 was added to the culture and the expression of the protein was induced by using IPTG 0.3 mM. When the culture reached 0.9 OD600, bacterial cells were harvested by centrifugation. Pellets were resuspended in PBS (pH 7.4) and lysed by sonication on ice. Lysates were centrifuged for 30 min at 27.500 relative centrifugal force and the supernatants containing the expressed proteins were loaded on amylose resin (New England Biolabs, Milan, Italy), according to the manufacturer’s protocol, and incubated overnight under rotation. Following washes with 1X PBS, the purified proteins MBP-CTF-ZF4-8 and MBP-CTCF-ZF1-11 were obtained adding maltose elution buffer (10 mM maltose, 1X PBS). Then, the affinity-purified proteins were loaded onto an HiLoad 26/60 Superdex 75 gel filtration chromatography column (GE Healthcare, Milan, Italy) equilibrated and eluted with PBS. The purified products were finally concentrated using a Amicon Ultra Centrifugal Filter (Merck).
# 4.9. […]
# [2] = target: T4, CTCF zinc finger domains 4–8 (residues 348–494), MBP-fused (Homo sapiens, UniProt P49711); assay: Biolayer interferometry (BLI), immobilised BRK-BRG1 vs MBP-fused CTCF zinc fingers 4–8; format: binding
# T4 construct: and 4–8 (residues 348–494) in a bacterial expression system; made in house; host or cells: E. coli BL21
# Method: as §1, §2
# 4.9. […]
# [3] = system: BRK-BRG1 (BRK domain of human BRG1, region 612–656); assay: BLI detection limit, MBP-fused CTCF zinc finger domains on immobilised BRK-BRG1; format: binding; conditions: PBS
# Method: 4.9. Binding of BRK-BRG1 to Recombinant CTFC Multiple Zinc Finger Domains by Biolayer Interferometry (BLI)
# BLI measurements were performed using a BLItz system and ARG2 commercial biosensors (ForteBio, CA, United States), following the manufacturer’s instructions. A reduced volume sample cuvette (4 µL) was used for all the experiments. Assays were performed by immobilizing the synthetic BRK-BRG1 domain on the surface of the sensor chip and exposing it to solutions of recombinant CTFC domain 1–11 or CTCF domains 4–8, both fused to MBP, dissolved in PBS at increasing concentrations. After pre-hydration for 10 min in PBS buffer, the immobilization was achieved by pre-activating the sensor surface for 180 s with EDC/NHS, both in water, at 0.4 M and 0.1 M, respectively. Then, the sensor chip was exposed for 300 s to a solution of BRK-BRG1 at 200 µg/mL in sodium acetate pH 4.5. After extensive washing with buffer, the sensor chip surface was deactivated using 1 M ethanolamine in water pH 8.5 for 180 s. Binding assays were performed after exposure for 30 s to PBS (running buffer) to acquire the initial baseline. Next, the derivatized chip was exposed to the CTFC protein solutions in PBS for 120 s, followed by PBS washes (120 s). Then, the sensor chip was fully regenerated, restoring the baseline, by treatment with a solution of NaOH 5 mM for 10 s and a further wash with PBS. […]
# [4] = Precipitation of MBP-fused CTCF domains 1–11 in PBS; format: physicochemical; conditions: concentrations higher than 3.0 µM
# Method: as §2, with “(Merck). […]” for “(Merck).”
# [5] = target: T1, MBP-fused CTCF zinc finger domains 4–8 …; assay: BLI; synthetic BRK-BRG1 immobilised on ARG2 biosensor by EDC/NHS (BLItz); MBP-fused CTCF zinc finger domains as analytes in PBS; free MBP signal subtracted; KD from plateau shifts, one binding site hyperbola; conditions: both partners purified
# [6] = target: T2, MBP-fused CTCF zinc finger domains 1–11 …; assay: as above; conditions: both partners purified
molecule,measurement,setting,value
Ac-MSDLPVKVIHVESGKILTGTDAPKAGQLEAWLEMNPGYEVAPRSD-NH2 [BRK-BRG1],"direct binding to CTCF zinc finger region 1–11, result in words",[1],binds the CTCF region including the eleven zinc finger domains
same,"direct binding to CTCF zinc fingers 4–8, result in words",[2],direct binding; also recorded: the region encompassing domains from 4 to 8 strongly contributes to this interaction; also recorded: binds the zinc finger motifs 4–8 of CTCF
B1,"BLI shift at low concentration, domains 4–8",[3]; solutions at concentrations below 10 nM,No shifts were measured
B2,"BLI shift at low concentration, domains 1–11",[3]; solutions at concentrations below 0.5 µM,No shifts were measured
same,precipitation of the protein,[4],the protein underwent precipitation
B3,Kd,[5],~95 nM
same,Kd,[6],~2300 nM
